{"source": "paper PMC3994028", "molecular_target": "non-muscle myosin IIB (NM IIB) (rat (endogenous in hippocampal neurons of Sprague-Dawley rats and in PC12)) (UniProt Q9JLT0)", "sequence (Q9JLT0 whole entry)": "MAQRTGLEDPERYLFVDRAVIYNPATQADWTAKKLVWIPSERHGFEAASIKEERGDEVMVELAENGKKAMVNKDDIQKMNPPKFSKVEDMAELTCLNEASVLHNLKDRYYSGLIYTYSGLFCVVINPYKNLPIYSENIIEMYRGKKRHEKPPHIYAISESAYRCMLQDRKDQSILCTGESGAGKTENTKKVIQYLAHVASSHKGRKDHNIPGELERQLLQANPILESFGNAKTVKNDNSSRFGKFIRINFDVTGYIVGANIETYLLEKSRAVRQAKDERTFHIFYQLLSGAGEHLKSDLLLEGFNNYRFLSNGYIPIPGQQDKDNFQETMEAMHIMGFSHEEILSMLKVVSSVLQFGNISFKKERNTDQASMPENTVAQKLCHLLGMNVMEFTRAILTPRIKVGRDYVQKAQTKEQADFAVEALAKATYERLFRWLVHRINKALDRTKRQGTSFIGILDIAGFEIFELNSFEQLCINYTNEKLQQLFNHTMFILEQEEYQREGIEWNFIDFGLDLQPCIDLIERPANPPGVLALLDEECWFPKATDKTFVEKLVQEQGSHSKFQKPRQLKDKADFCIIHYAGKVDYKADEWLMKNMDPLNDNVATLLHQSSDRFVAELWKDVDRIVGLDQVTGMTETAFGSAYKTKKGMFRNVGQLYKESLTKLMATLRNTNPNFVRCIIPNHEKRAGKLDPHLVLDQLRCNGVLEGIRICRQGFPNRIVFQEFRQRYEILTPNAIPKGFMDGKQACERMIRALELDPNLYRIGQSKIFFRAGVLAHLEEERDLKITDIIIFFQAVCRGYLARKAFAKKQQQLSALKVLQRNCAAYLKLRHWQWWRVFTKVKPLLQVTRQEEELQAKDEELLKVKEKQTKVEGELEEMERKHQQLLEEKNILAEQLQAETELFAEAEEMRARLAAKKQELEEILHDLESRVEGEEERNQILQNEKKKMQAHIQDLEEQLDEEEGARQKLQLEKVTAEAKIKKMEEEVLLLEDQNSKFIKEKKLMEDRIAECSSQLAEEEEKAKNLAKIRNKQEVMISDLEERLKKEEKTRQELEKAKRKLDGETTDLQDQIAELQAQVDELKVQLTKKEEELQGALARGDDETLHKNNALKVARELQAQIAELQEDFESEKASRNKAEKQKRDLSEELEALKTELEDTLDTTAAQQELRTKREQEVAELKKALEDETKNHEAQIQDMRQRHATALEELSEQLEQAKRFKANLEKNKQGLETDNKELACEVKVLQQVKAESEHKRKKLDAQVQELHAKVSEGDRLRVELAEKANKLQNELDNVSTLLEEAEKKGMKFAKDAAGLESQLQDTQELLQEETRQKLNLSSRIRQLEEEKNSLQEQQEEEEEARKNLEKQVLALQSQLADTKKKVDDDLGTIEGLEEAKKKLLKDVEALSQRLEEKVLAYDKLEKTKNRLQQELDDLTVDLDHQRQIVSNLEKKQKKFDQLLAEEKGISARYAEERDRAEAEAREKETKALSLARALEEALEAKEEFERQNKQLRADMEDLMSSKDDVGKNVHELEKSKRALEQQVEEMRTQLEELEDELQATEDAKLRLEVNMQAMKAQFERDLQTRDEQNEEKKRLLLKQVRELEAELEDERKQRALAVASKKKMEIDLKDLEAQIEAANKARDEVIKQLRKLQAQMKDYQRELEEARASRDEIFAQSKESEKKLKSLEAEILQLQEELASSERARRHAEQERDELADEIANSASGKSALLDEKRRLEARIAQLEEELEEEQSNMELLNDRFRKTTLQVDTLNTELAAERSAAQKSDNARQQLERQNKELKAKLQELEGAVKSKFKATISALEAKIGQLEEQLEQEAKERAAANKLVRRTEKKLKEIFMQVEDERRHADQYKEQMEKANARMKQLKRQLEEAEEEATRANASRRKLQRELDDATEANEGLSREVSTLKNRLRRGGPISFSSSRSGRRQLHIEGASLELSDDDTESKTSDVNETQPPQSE", "assay": "proximity ligation; Duolink in situ PLA on fixed, permeabilised cultured hippocampal neurons (growth cones); primary antibodies against βPIX (or kalirin) and NM IIB, or βPIX and GIT; with or without 50 µM BBS for 15 or 30 min"}
{"substance": "βPIX (endogenous, hippocampal neurons) (from UniProt O55043 1-646) (natural protein)", "values": [{"measurement": "PLA fluorescence intensity in the actin-positive area 30 min after BBS, percent of untreated growth cones (% of untreated)", "value": 51}]}
